Measurements published in PMC5056459, “Antagonistic roles of Drosophila Tctp and Brahma in chromatin remodelling and stabilizing repeated sequences” (Nature Communications, 2016).

Target: T1, GST-Brm 304-747 (Drosophila, UniProt P25439 304-747)
T1 construct: in pGEX5X-1; also called middle part of Brm protein; source: E. coli Rosetta2, extracted and dialysed
Test: pull-down; GST-Brm fragments as baits, MBP-Tctp as prey, 5 micrograms each; PDB (20 mM Tris-HCl pH 7.5, 150 mM NaCl, 0.5 mM EDTA, 10% glycerol, 0.1% Triton X-100, 1 mM DTT) with 0.2% BSA, 2-3 h at 4 °C; western blot with anti-GST and anti-MBP; proteins extracted from E. coli and dialysed
Details: both partners purified

T1 sequence (P25439 304-747): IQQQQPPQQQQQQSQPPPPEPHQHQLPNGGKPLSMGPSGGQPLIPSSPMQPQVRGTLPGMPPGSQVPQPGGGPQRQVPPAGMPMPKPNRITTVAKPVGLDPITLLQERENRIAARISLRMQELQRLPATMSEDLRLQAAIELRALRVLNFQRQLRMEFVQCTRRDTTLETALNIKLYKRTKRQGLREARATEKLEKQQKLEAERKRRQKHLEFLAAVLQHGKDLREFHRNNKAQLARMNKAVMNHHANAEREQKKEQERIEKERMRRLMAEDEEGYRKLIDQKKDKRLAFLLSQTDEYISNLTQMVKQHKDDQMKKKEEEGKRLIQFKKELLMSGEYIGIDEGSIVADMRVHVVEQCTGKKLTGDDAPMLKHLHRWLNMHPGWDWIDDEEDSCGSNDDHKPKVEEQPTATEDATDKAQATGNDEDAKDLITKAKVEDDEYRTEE

binding result: binds
B1: MBP-Tctp (natural protein, Drosophila, UniProt Q9VGS2 1-172, looked up)
chain: MKIYKDIITGDEMFADTYKMKLVDDVIYEVYGKLITRQGDDIKLEGANASAEEADEGTDITSESGVDVVLNHRLTECFAFGDKKSYTLYLKDYMKKVLAKLEEKSPDQVDIFKTNMNKAMKDILGRFKELQFFTGESMDCDGMVALVEYREINGDSVPVLMFFKHGLEEEKC
notes: Drosophila Tctp in pMAL-c2; also called MBP-tagged Tctp; source: E. coli Rosetta2, extracted and dialysed
